Source: paper doi:10.1101/2025.11.15.688623

How the values were obtained:
[1] = biological target: AccA3 (biotin carboxylase subunit with C-terminal BCCP domain) (Mycobacterium smegmatis (endogenous in M. smegmatis)); assay: cryo-EM structure
[2] = biological target: AccE5 (ε-subunit) (Mycobacterium smegmatis (endogenous in M. smegmatis)); assay: cryo-EM structure

Substance	stoichiometry N [1]	stoichiometry N [2]
AccA3 (biotin carboxylase subunit with C-terminal BCCP domain) (enzyme)	4	
AccE5 (ε-subunit) (natural protein)		2
